Target: CapGH3b (Alloprevotella sp. MAG60)
Experiment: SEC-MALS

stoichiometry N: 2
Substance: CapGH3b (enzyme)
